Data as given in publication PMC5686140, “Structural disorder and induced folding within two cereal, ABA stress and ripening (ASR) proteins” (Scientific Reports, 2017).

Target: the molecule itself
Assay: native MS; native ESI-MS, Synapt G2-Si; proteins buffer-exchanged into 250 mM ammonium acetate, pH 8.0, infused at 15 μM; source temperature 30 °C

B1: alcohol dehydrogenase (enzyme, UniProt P00330 1-348, looked up)
chain: MSIPETQKGVIFYESHGKLEYKDIPVPKPKANELLINVKYSGVCHTDLHAWHGDWPLPVKLPLVGGHEGAGVVVGMGENVKGWKIGDYAGIKWLNGSCMACEYCELGNESNCPHADLSGYTHDGSFQQYATADAVQAAHIPQGTDLAQVAPILCAGITVYKALKSANLMAGHWVAISGAAGGLGSLAVQYAKAMGYRVLGIDGGEGKEELFRSIGGEVFIDFTKEKDIVGAVLKATDGGAHGVINVSVSEAAIEASTRYVRANGTTVLVGMPAGAKCCSDVFNQVVKSISIVGSYVGNRADTREALDFFARGLVKSPIKVVGLSTLPEIYEKMEKGQIVGRYVVDTSK
notes: alcohol dehydrogenase (ADH, a tetrameric protein), control of the native ESI-MS; Species surmised: the tetrameric ADH commonly used as a native MS standard is that of S. cerevisiae; also called ADH
  stoichiometry N: 4
